Data as given in PMC8447495, “Dissecting Monomer-Dimer Equilibrium of an RNase P Protein Provides Insight Into the Synergistic Flexibility of 5’ Leader Pre-tRNA Recognition” (Frontiers in Molecular Biosciences, 2021).

Target: the molecule itself
Test: NMR (preliminary experiments); highly purified P protein at 25°C

B1: Thermotoga maritima RNase P protein (natural protein)
chain: TESFTRRERLRLRRDFLLIFKEGKSLQNEYFVVLFRKNGLDYSRLGIVVKRKFGKATRRNKLKRWVREIFRRNKGVIPKGFDIVVIPRKKLSEEFERVDFWTVREKLLNLLKRIEG
modifications: 15N, 13C-labeled
notes: RNase P protein component (rnpA gene) of Thermotoga maritima; numbering corresponds to UniProtKB Q9X1H4; Exists as monomer and dimer in equilibrium in solution; the preparation follows Zeng et al., 2018; also called T. maritima RNase P protein; source: E. coli BL21 Gold, M9 minimal media, purified (thrombin-treated lysate, denaturation-renaturation, 15S cation exchange); not shown: GST, …
  stoichiometry N: 2
